Assay results reported in publication PMC9334453.

Molecular target: murine monoclonal IgE antibody 2F5 (anti-profilin Hev b 8)
Test: ELISA
Conditions: chain shown with the change; n = 4; parent: est. 0.26; read off a plot

response: 0.4 Abs 405nm
B1: recombinant maize profilin (rZea m 12) E128D (protein)
chain: GMSWQAYVDDHLLCDIEGQHLSAAAIVGHDGSVWAQSENFPELKPEEVAGMIKDFDEPGTLAPTGLFVGGTKYMVIQGEPGVVIRGKKGTGGITIKKTGMSLIIGIYDEPMTPGQCNMVVERLGDYLIDQGF
